Results from patent publication US6521748B2, “Polynucleotide encoding a mutant Rhodotorula glutinis tyrosine ammonia lyase polypeptide” (E. I. du Pont de Nemours and Company, priority 1999, dated 2003).
Numbering of substitutions follows the chain as printed. Read-outs that look alike come from different tables or passages of the source.

Assays:
[1] = tested on: tyrosine-auxotrophic E. coli strain AT2471 containing pCA18Km; assay: Toxicity of PHCA to tyrosine-auxotrophic E. coli on minimal plate; assay type: cell-based; set-up: key to cell growth: −: no growth; +: very poor growth; ++: poor growth; +++: good growth; conditions: for cell growth: 0.004 mM tyrosine added
Experimental: (§1) In order to find the suitable condition for selection, cell growth was tested on a minimal plate containing various concentrations of tyrosine or PHCA (see Table 9).

[2] = tested on: tyrosine-auxotrophic E. coli strain AT2471 containing pCA18Km; assay: Growth of tyrosine-auxotrophic E. coli on minimal plate with tyrosine; assay type: cell-based; set-up: key: −: no growth; +: very poor growth; ++: poor growth; +++: good growth; conditions: no PHCA
Experimental: as §1

[3] = PAL specific activity in cell free extracts; assay type: biochemical; conditions: cell free extract of E. coli clones over-expressing PAL from pKK223-3
Experimental: (§2) The PAL or TAL activity of the purified enzymes were measured using a spectrophotometer according to Abell et al., “Phenylalanine Ammonia-lyase from Yeast Rhodotorula glutinis,” Methods Enzymol. 142:242-248 (1987). The spectrophotometric assay for PAL determination was initiated by the addition of the enzyme to a solution containing 1.0 mM L-phenylalanine and 50 mM Tris-HCl (pH 8.5). The reaction was then followed by monitoring the absorbance of the product, cinnamic acid, at 290 nm using a molar extinction coefficient of 9000 cm^−1. The assay was run over a 5 min period using an amount of enzyme that produced absorbance changes in the range of 0.0075 to 0.018/min. One unit of activity indicated deamination of 1.0 μmol of phenylalanine to cinnamic acid per minute. The TAL activity was similarly measured using tyrosine in the reaction solution. The absorbance of the para-hydroxycinnamic acid produced was followed at 315 nm and the activity was determined using an extinction coefficient of 10,000 cm^−1 for PHCA. One unit of activity indicated deamination of 1.0 μmol of tyrosine to para-hydroxycinnamic acid per minute.
(§3) The cell pellet was resuspended with 0.5 mL/g cells, 50 mM Tris-HCl buffer (pH 8.5) and disrupted by a single passage through the French Pressure Cell at 20,000 psi. The disrupted cells were then centrifuged for 30 min at 14,200×g to remove the unbroken cell mass. […]

[4] = Enzyme kinetics of purified wild type and mutant PAL, PAL activity (spectrophotometric); assay type: biochemical; conditions: phenylalanine as substrate; for Km: Lineweaver-Burke plot; for kcat: from Vmax assuming four active sites
Experimental: as §2
(§4) A detailed enzyme kinetics analysis using the yeast wild type and the purified mutant PAL enzyme and tyrosine or phenylalanine as substrate, was carried out. The PAL and TAL activities were measured spectrophotometrically as described in the General Methods and the KM and Vmax were determined from its Lineweaver-Burke plot. The kcat was calculated from Vmax assuming the presence of four active sites in the active tetramer.

[5] = Ratio of TAL to PAL catalytic efficiency of purified enzymes; assay type: biochemical
Experimental: as §4
The catalytic efficiency, defined as kcat/KM, was calculated for both the wild type and mutant enzyme. The ratio of the TAL catalytic efficiency versus the PAL of the wild type enzyme was 0.5 while that of the mutant enzymes had increased to 1.7 (see Table 11).

[6] = TAL specific activity in cell free extracts; assay type: biochemical; conditions: cell free extract of E. coli clones over-expressing PAL from pKK223-3
Experimental: as §2, §3

[7] = Enzyme kinetics of purified wild type and mutant PAL, TAL activity (spectrophotometric); assay type: biochemical; conditions: tyrosine as substrate; for Km: Lineweaver-Burke plot; for kcat: from Vmax assuming four active sites
Experimental: as §2, §4

[8] = Whole cell TAL/PAL activity ratio (follow-up assay after high throughput screen); assay type: cell-based, E. coli
Experimental: The following assay was performed to confirm that fully active mutant PAL enzyme was produced in BL21(DE3) E. coli cells. E. coli cells were grown in LB medium overnight. One mL of cell culture was pelleted and resuspended in 1 mL of 50 mM Tris-HCl buffer (pH 8.5) containing 0.5 mM tyrosine (for TAL activity measurement) or phenylalanine (for PAL activity measurement). The reaction mixture was incubated on the shaker at 37 C. for 1 hr. The reaction mixture was filtrated using 0.2 μm pore size filter (Millipore, Bedford, Mass.), and injected into HPLC (Hewlett-Packard Company, Palo Alto, Calif.). TAL or PAL activity was determined by measuring the concentration of the resulting PHCA or cinnamate. […]
5,000 mutant colonies were picked from agarose plates and screened by high throughput assay (Example 20). The initial hits were further investigated by a follow-up assay to confirm screening results. The TAL and PAL activities were measured using the whole cell assay, described in Example 17, and then ratio of TAL/PAL activities was calculated. The following table summarizes results of the follow-up assay for four mutants with altered TAL/PAL ratios:
A total of 5,000 mutant colonies from these three libraries were screened by high throughput assay (Example 20). Initial hits were further investigated by a follow-up HPLC assay to confirm the screening results as described in Example 21. One mutant with improved TAL/PAL ratio was found (Table 19).

[9] = Whole cell PAL/TAL activity of colonies from the selection plates; assay type: cell-based, E. coli; conditions: whole cell assay
Experimental: An HPLC assay was developed for measuring the levels of cinnamic acid and PHCA formed by the whole cells. In a typical assay, following centrifugation of a culture grown in the medium of choice, 20-1000 μL of the supernatant was acidified with phosphoric acid, filtered through a 0.2 or 0.45 micron filter and analyzed by the HPLC to determine the concentration of PHCA and cinnamic acid in the growth medium. Alternatively, following centrifugation, the cells were resuspended in 100 mM Tris-HCl (pH 8.5) containing 1.0 mM tyrosine or 1.0 mM phenylalanine and incubated at room temperature for 1.0-16 h. A filtered aliquot (20-1000 μL) of this suspension was then analyzed.
The colonies that had appeared on the selection plates were analyzed for their PAL/TAL activity using the whole cell assay described in the general methods. […] Genetic analysis for the EP18Km-6 mutant was carried out. The plasmid DNA was purified from the mutant cells, and then re-transformed into E. coli. […] To better characterize the mutants, the following analyses were carried out.

[10] = Whole cell TAL activity assay (HPLC) in BL21(DE3) E. coli cells; assay type: cell-based; conditions: for TAL Activity (%): 0.5 mM tyrosine, 37 C, 1 hr
Experimental: The following assay was performed to confirm that fully active mutant PAL enzyme was produced in BL21(DE3) E. coli cells. E. coli cells were grown in LB medium overnight. One mL of cell culture was pelleted and resuspended in 1 mL of 50 mM Tris-HCl buffer (pH 8.5) containing 0.5 mM tyrosine (for TAL activity measurement) or phenylalanine (for PAL activity measurement). The reaction mixture was incubated on the shaker at 37 C. for 1 hr. The reaction mixture was filtrated using 0.2 μm pore size filter (Millipore, Bedford, Mass.), and injected into HPLC (Hewlett-Packard Company, Palo Alto, Calif.). TAL or PAL activity was determined by measuring the concentration of the resulting PHCA or cinnamate.
The truncation mutants were analyzed by measuring TAL activity using the whole cell assay described in Example 17. Table 15 summarizes the results:
The C-terminal truncation mutant was analyzed by measuring TAL and PAL activities using the whole cell assay described in Example 17, and pET17b-Km-6 was used as positive control.

[11] = Ratio of PAL to TAL specific activity; assay type: biochemical; conditions: purified enzyme
Experimental: The PAL or TAL activity of the purified enzymes were measured using a spectrophotometer according to Abell et al., “Phenylalanine Ammonia-lyase from Yeast Rhodotorula glutinis,” Methods Enzymol. […] The spectrophotometric assay for PAL determination was initiated by the addition of the enzyme to a solution containing 1.0 mM L-phenylalanine and 50 mM Tris-HCl (pH 8.5). The reaction was then followed by monitoring the absorbance of the product, cinnamic acid, at 290 nm using a molar extinction coefficient of 9000 cm^−1. The assay was run over a 5 min period using an amount of enzyme that produced absorbance changes in the range of 0.0075 to 0.018/min. One unit of activity indicated deamination of 1.0 μmol of phenylalanine to cinnamic acid per minute. The TAL activity was similarly measured using tyrosine in the reaction solution. The absorbance of the para-hydroxycinnamic acid produced was followed at 315 nm and the activity was determined using an extinction coefficient of 10,000 cm^−1 for PHCA. One unit of activity indicated deamination of 1.0 μmol of tyrosine to para-hydroxycinnamic acid per minute.
The PAL/TAL activity was determined as described above.

[12] = Hanson and Havir 1981; cited from earlier work

With `O=C(O)C=Cc1ccc(O)cc1` [PHCA, Para-hydroxycinnamic acid] the cell growth ([1]; 0.0001-0.0002 mM PHCA) was “+++”, the cell growth ([1]; 0.0003-0.0005 mM PHCA) was “+++” and the cell growth ([1]; 0.001-0.004 mM PHCA) was “+++”. The cell growth ([1]; 10 mM PHCA) was “−”, the cell growth ([1]; 1.0-2.0 mM PHCA) was “++” and the cell growth ([1]; 4.0-6.0 mM PHCA) was “+”. For the same molecule, the “toxicity to the cells” value ([1]; high concentrations) was “toxic”.

In the case of `N[C@@H](Cc1ccc(O)cc1)C(=O)O` [Tyrosine, tyrosine], the cell growth ([2]; 0.0001-0.0002 mM tyrosine) is reported as “−”, the cell growth ([2]; 0.0003-0.0005 mM tyrosine) is reported as “+” and the cell growth ([2]; 0.001-0.004 mM tyrosine) is reported as “+++”.

B1: Wild Type PAL: wildtype R. glutinis (Rhodosporidium toruloides) PAL enzyme, SEQ ID NO:8 (protein)
chain: MAPSLDSISHSFANGVASAKQAVNGASTNLAVAGSHLPTTQVTQVDIVEKMLAAPTDSTLELDGYSLNLGDVVSAARKGRPVRVKDSDEIRSKIDKSVEFLRSQLSMSVYGVTTGFGGSADTRTEDAISLQKALLEHQLCGVLPSSFDSFRLGRGLENSLPLEVVRGAMTIRVNSLTRGHSAVRLVVLEALTNFLNHGITPIVPLRGTISASGDLSPLSYIAAAISGHPDSKVHVVHEGKEKILYAREAMALFNLEPVVLGPKEGLGLVNGTAVSASMATLALHDAHMLSLLSQSLTAMTVEAMVGHAGSFHPFLHDVTRPHPTQIEVAGNIRKLLEGSRFAVHHEEEVKVKDDEGILRQDRYPLRTSPQWLGPLVSDLIHAHAVLTIEAGQSTTDNPLIDVENKTSHHGGNFQAAAVANTMEKTRLGLAQIGKLNFTQLTEMLNAGMNRGLPSCLAAEDPSLSYHCKGLDIAAAAYTSELGHLANPVTTHVQPAEMANQAVNSLALISARRTTESNDVLSLLLATHLYCVLQAIDLRAIEFEFKKQFGPAIVSLIDQHFGSAMTGSNLRDELVEKVNKTLAKRLEQTNSYDLVPRWHDAFSFAAGTVVEVLSSTSLSLAAVNAWKVAAAESAISLTRQVRETFWSAASTSSPALSYLSPRTQILYAFVREELGVKARRGDVFLGKQEVTIGSNVSKIYEAIKSGRINNVLLKMLA
For B1, the “highest specific activity, PAL” value [3] was 0.244 U/mg protein, the Km [4] was 250 µM and the “kcat” value [4] was 2.09 s⁻¹. The “TAL/PAL ratio (catalytic efficiency)” value [5] was 0.5, the “highest specific activity, TAL” value [6] was 0.0650 U/mg protein and the Km [7] was 111 µM. For the same molecule, the “kcat” value [7] was 0.46 s⁻¹, the “TAL/PAL ratio” value [8] was 0.5 and the TAL/PAL ratio ([8]; regional mutant amino acid No. 492-503, Table 19) was 0.5. It also gave a TAL/PAL ratio ([8]; summary table of mutants) of 0.5.

B2: EP18Km-6: mutant R. glutinis PAL enzyme having enhanced TAL activity, Ile540Thr, SEQ ID NO:10 (protein)
chain: B1 chain with I540T
In the case of B2, the “TAL activity ratio versus wild type cell” value [9] is reported as “enhanced TAL activity ratio”, the Km [4] is reported as 333 µM and the “kcat” value [4] is reported as 2.45 s⁻¹. The “TAL/PAL ratio (catalytic efficiency)” value [5] was 1.7, the “TAL/PAL activity of enzyme expressed from pET17b” value ([10]; BL21(DE3) E. coli cells) was “fully active” and the “TAL Activity (%)” value ([10]; C-terminal truncation mutant in pET17b) was 100%. For the same molecule, the “TAL Activity (%)” value ([10]; N-terminus truncation mutants in pET17b) was 100%, the Km [7] was 50 µM and the “kcat” value [7] was 0.63 s⁻¹. It also gave a TAL/PAL ratio ([8]; regional mutants amino acid No. 120-280, Table 17) of 1.7 and a TAL/PAL ratio ([8]; summary table of mutants) of 1.7.

B3: purified enzyme: purified PAL/TAL enzyme of Rhodosporidium toruloides (protein, UniProt P11544 1-716, looked up)
Phenylalanine/tyrosine …: B1 chain
Work on B3 yielded a PAL/TAL ratio [11] of 2.12.

B4: Rhodosporidium: PAL/TAL enzyme of the yeast Rhodosporidium, literature value (protein)
chain: B1 chain
In the case of B4, the “ratio of TAL catalytic activity to PAL catalytic activity” value [12] is listed as “approximately 0.58”.
